Measurements published in PMC9604545.

Assays:
[1] = target: human legumain, activated asparaginyl-specific endopeptidase (AEP) (human) (UniProt Q99538); experiment: enzyme inhibition kinetics (Ki from initial velocities, Morrison equation); hCE-K75A at 1.5 nM to 1.6 µM mixed with 50 µM AAN-AMC in 20 mM citric acid pH 5.5, 50 mM NaCl, 0.05% Tween-20; reaction started with 2 nM legumain; 10 min at 37 °C
[2] = target: human legumain, activated asparaginyl-specific endopeptidase (AEP) (human) (UniProt Q99538); experiment: SEC; legumain incubated with hCE-K75A at a 1:4 molar ratio in 50 mM citric acid pH 4.0, 100 mM NaCl for 1 h at 37 °C, till complete RCL hydrolysis; Superdex 75 or S200 10/300 GL in 20 mM citric acid pH 4.0, 50 mM NaCl; peak fractions analysed by SDS-PAGE

Sequence of UniProt Q99538 (Q99538 18-323): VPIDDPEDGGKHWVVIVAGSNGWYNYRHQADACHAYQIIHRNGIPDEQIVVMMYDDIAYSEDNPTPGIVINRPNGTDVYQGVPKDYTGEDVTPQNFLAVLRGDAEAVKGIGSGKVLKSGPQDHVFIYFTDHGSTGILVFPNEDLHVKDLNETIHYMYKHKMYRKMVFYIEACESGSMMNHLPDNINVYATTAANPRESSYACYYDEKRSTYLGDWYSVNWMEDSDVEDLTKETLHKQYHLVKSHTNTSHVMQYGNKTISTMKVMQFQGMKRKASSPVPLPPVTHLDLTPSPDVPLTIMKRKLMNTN

human cystatin M/E-K75A mutant, intact (natural protein)
Ki [1]: 19.8 nM

human cystatin M/E-K75A mutant, cleaved by legumain after P1-Asn39 on the reactive center loop (complex)
molar ratio of enzyme:inhibitor in the complex peak (enzyme:inhibitor) [2]: 1
